B1: CH235_4A (antibody, from a related filing, V domains shown)
VH: QVQLVQSGAEVKKPGASVTVSCQASGYTFTNYYVHWVRQAPGQGLQLMGWIDPSWGRTNYAQNFQGRITMTRDTSTSTVYMEMRSLRSEDTAVYYCARNVATEGSLLHYDYWGQGTLVTVSA
VL: EIVLTQSPATLSVSPGERATLSCRASQSVRSNLAWYQQRPGQAPRLLIYGTSTRATGVPARFSGRGSGTEFTLAISSMQSEDFAVYLCLQYNNWWTFGQGTKVEIK
B2: CH240_4A/293i (antibody, from a related filing, V domains shown)
VH: QVQLVQSGTEVRKPGASVTISCKASGYTFNNFYVHWVRQAPGQGLECMGWIDPSVGRISYGQKFQGRVTMTRDRSTSTVYMGLSSLRSEDTAMYYCVRDVGTEGSLLHFDHWGQGTLVIVSA
VL: B1 VL with S26T, R39K, P40R, G50S, T51A, V58I, R65S, A74T, M78V, L87Y
B3: CH241 (antibody, from a related filing, V domains shown)
VH: QVQLVQSGAAVKKPGASVRVSCKASGYTFTSSHIHWVRQAPGQGPEWMGMIDPSVGRPTTAGKFQGRVTMTRDRYTSTAYMDLSSLRSEDTAVYYCARSVETTGSLLYFDYWGQGTLITVSS
VL: EIVLTQSPATLSVSPGERATLSCRASQSVRSNIAWYQQKPGQAPRLLIHGASTRATGIPGRFSGSGSGPEFTLAISSVQSEDFAVYYCQQYNDWWTFGQGTKVEIK

Residue numbers refer to the chain shown, from its start.

Substrate in one assay: T1, SSB (UniProt P05455)
T1 sequence (looked up): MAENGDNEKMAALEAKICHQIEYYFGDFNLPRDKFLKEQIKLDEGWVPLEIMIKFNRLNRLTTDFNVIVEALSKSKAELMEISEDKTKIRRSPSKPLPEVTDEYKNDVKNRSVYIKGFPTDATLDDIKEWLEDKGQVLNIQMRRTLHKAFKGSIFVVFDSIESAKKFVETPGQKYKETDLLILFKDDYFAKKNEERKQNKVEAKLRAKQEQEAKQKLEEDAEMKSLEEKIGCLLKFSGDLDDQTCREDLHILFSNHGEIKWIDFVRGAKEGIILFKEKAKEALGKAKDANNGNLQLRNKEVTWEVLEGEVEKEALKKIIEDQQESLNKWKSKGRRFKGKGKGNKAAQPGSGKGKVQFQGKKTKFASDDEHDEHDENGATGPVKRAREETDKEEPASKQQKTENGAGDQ
As to the kind of experiment: AtheNA, Ab 12.5 ug/ml.
Regarding B1, the Athena reading (relative luminescence units) came out at 5.
With B2, the Athena reading (relative luminescence units) stood at 5.
Still for that read-out and setting: then B3, with 8.

Substrate in the next assay: T1, 
As to the kind of experiment: AtheNA, Ab 25 ug/ml.
Consider B1, for which the Athena reading (relative luminescence units) worked out at 5.
B2: the Athena reading (relative luminescence units) was found to be 11.
Take B3: the Athena reading (relative luminescence units) was found to be 6.

The target in a further assay is T2, Jo-1 (UniProt P12081).
T2 sequence (looked up): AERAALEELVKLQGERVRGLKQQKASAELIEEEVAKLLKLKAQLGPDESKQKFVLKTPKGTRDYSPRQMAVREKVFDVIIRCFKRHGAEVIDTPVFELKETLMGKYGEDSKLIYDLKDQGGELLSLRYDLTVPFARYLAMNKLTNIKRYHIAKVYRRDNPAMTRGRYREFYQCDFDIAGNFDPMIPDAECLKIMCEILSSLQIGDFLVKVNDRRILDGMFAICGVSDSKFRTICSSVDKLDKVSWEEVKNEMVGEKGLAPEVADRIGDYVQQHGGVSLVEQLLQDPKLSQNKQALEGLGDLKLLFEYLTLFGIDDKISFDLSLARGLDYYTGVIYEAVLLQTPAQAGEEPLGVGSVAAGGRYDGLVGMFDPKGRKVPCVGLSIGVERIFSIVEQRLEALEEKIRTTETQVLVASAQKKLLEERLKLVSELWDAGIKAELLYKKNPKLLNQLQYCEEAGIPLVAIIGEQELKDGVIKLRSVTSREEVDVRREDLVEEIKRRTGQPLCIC
As to the kind of experiment: AtheNA, Ab 6.25 ug/ml.
The molecule B1 displayed an Athena reading (relative luminescence units) of 2.
B2 yielded an Athena reading (relative luminescence units) of 5.
On the same count and under the same terms, then B3, with 2.

The target in the next assay is RNP (ribonucleoprotein). The experiment in a line: AtheNA, Ab 6.25 ug/ml.
B1 came in with an Athena reading (relative luminescence units) of 3.
For the molecule B2, the Athena reading (relative luminescence units) is 6.
Still for that read-out and setting: the value for B3 was 3.

The next assay addresses Scl-70 (UniProt P11387). The experiment in a line: AtheNA, Ab 6.25 ug/ml.
B1 yielded an Athena reading (relative luminescence units) of 2.
Same read-out and setting: the value for B2 was 3; that for B3 was 1.

In a further assay the target is SSA. As to the kind of experiment: AtheNA, Ab 6.25 ug/ml.
Regarding B1, the Athena reading (relative luminescence units) amounted to 12.
On the same count and under the same terms, then B2, with 12; and B3, with 15.

A further assay deals with Histones. As to the kind of experiment: AtheNA, Ab 6.25 ug/ml.
B1: the Athena reading (relative luminescence units) was 5.
Same read-out and setting: then B2, with 9.
Regarding B3, the Athena reading (relative luminescence units) is 9.

Another assay concerns the target T3, Centromere B (UniProt P07199).
T3 sequence (looked up): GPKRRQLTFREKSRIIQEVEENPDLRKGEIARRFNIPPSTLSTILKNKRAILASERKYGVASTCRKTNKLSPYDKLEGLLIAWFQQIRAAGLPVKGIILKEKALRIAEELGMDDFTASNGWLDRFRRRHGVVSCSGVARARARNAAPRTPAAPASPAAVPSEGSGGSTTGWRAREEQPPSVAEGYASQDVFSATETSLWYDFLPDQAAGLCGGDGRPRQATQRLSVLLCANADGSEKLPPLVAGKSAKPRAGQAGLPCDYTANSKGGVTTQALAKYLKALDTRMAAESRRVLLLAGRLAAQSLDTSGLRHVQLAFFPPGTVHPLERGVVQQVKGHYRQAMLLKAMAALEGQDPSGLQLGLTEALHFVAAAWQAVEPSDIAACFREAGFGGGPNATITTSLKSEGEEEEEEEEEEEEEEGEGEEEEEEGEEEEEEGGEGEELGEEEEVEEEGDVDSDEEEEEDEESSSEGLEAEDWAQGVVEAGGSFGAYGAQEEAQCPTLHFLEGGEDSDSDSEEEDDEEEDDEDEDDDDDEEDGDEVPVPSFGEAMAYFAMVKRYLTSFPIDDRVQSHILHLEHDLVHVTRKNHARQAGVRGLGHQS
The experiment in a line: AtheNA, Ab 6.25 ug/ml.
Turning to B1, the Athena reading (relative luminescence units) was 3.
The same measure, in the same setting: then B2, with 8; and B3, with 6.

Another assay has as its target Sm (Smith antigen). As to the kind of experiment: AtheNA, Ab 6.25 ug/ml.
Take B1: the Athena reading (relative luminescence units) amounted to 5.
For B2, the Athena reading (relative luminescence units) was 9.
On to B3, for which the Athena reading (relative luminescence units) is 4.

Another assay deals with T2, Jo-1. As to the kind of experiment: AtheNA, Ab 12.5 ug/ml.
Take B1: the Athena reading (relative luminescence units) was 3.
The same measure, in the same setting: the value for B2 was 7; that for B3 was 6.

The target in a further assay is RNP (ribonucleoprotein). The experiment in a line: AtheNA, Ab 12.5 ug/ml.
Molecule B1 registered an Athena reading (relative luminescence units) of 6.
Take B2: the Athena reading (relative luminescence units) is 8.
In turn, B3 displayed an Athena reading (relative luminescence units) of 5.

Another assay concerns the target Scl-70 (UniProt P11387). The experiment in a line: AtheNA, Ab 12.5 ug/ml.
With B1, the Athena reading (relative luminescence units) worked out at 2.
Same read-out and setting: then B2, with 4; and B3, with 3.

For another assay, the target named is SSA. As to the kind of experiment: AtheNA, Ab 12.5 ug/ml.
Regarding B1, the Athena reading (relative luminescence units) was found to be 13.
Consider B2, for which the Athena reading (relative luminescence units) was 14.
Same read-out and setting: the value for B3 was 14.

A further assay concerns the target Histones. As to the kind of experiment: AtheNA, Ab 12.5 ug/ml.
B1 displayed an Athena reading (relative luminescence units) of 5.
Same read-out and setting: the value for B2 was 18; that for B3 was 13.

The next assay has as its target T3, Centromere B. As to the kind of experiment: AtheNA, Ab 12.5 ug/ml.
As for B1, the Athena reading (relative luminescence units) was found to be 5.
In turn, B2 had an Athena reading (relative luminescence units) of 15.
B3 had an Athena reading (relative luminescence units) of 8.

The next assay addresses Sm (Smith antigen). The experiment in a line: AtheNA, Ab 12.5 ug/ml.
As to B1, the Athena reading (relative luminescence units) stood at 8.
The molecule B2 registered an Athena reading (relative luminescence units) of 13.
Consider B3, for which the Athena reading (relative luminescence units) is 7.

Substrate in a further assay: T1, 
The experiment in a line: AtheNA, Ab 6.25 ug/ml.
Turning to B1, the Athena reading (relative luminescence units) worked out at 6.
Regarding B2, the Athena reading (relative luminescence units) was 5.
Still for that read-out and setting: the value for B3 was 4.

The next assay addresses T2, Jo-1. As to the kind of experiment: AtheNA, Ab 25 ug/ml.
In turn, B1 had an Athena reading (relative luminescence units) of 4.
The molecule B2 gave an Athena reading (relative luminescence units) of 11.
The same measure, in the same setting: the value for B3 was 5.

In a further assay the target is RNP (ribonucleoprotein). The experiment in a line: AtheNA, Ab 25 ug/ml.
For B1, the Athena reading (relative luminescence units) is 5.
Still for that read-out and setting: the value for B2 was 11.
On the same count and under the same terms, the value for B3 was 6.

In the next assay the target is Scl-70 (UniProt P11387). As to the kind of experiment: AtheNA, Ab 25 ug/ml.
Chain of Scl-70 (P11387 2-765 limits assumed): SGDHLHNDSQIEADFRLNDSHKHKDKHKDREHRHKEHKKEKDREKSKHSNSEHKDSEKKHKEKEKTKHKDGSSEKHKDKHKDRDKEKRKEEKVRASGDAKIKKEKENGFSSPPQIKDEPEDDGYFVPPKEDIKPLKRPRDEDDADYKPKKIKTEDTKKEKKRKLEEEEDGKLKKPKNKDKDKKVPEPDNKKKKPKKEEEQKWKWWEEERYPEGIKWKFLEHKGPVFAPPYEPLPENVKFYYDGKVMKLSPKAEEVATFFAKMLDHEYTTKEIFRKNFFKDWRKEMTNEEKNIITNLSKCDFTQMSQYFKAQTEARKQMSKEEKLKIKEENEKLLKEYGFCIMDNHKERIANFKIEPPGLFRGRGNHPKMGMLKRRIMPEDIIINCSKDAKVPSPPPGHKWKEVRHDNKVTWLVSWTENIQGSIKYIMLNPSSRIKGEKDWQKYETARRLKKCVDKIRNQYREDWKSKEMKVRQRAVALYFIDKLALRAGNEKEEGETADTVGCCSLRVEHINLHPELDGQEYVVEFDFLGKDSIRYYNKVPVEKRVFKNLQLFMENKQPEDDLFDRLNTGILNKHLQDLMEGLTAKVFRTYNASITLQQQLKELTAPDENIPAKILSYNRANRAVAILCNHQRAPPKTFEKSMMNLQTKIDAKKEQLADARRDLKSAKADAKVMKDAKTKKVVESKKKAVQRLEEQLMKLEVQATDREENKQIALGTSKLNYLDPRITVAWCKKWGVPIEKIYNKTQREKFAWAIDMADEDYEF
With B1, the Athena reading (relative luminescence units) worked out at 4.
The same measure, in the same setting: then B2, with 6.
Take B3: the Athena reading (relative luminescence units) stood at 4.

The target in a further assay is SSA. The experiment in a line: AtheNA, Ab 25 ug/ml.
For the molecule B1, the Athena reading (relative luminescence units) was found to be 13.
B2 came in with an Athena reading (relative luminescence units) of 16.
On the same count and under the same terms, then B3, with 15.

The next assay deals with Histones. The experiment in a line: AtheNA, Ab 25 ug/ml.
B1 returned an Athena reading (relative luminescence units) of 7.
Still for that read-out and setting: then B2, with 27; and B3, with 20.

In another assay the target is T3, Centromere B. As to the kind of experiment: AtheNA, Ab 25 ug/ml.
On to B1, for which the Athena reading (relative luminescence units) was 6.
As for B2, the Athena reading (relative luminescence units) is 24.
Still for that read-out and setting: the value for B3 was 14.

The next assay deals with Sm (Smith antigen). The experiment in a line: AtheNA, Ab 25 ug/ml.
B1: the Athena reading (relative luminescence units) stood at 7.
As to B2, the Athena reading (relative luminescence units) was 22.
Still for that read-out and setting: then B3, with 11.
